From publication PMC8307404, “Crystal Structure-Guided Design of Bisubstrate Inhibitors and Photoluminescent Probes for Protein Kinases of the PIM Family” (Molecules, 2021)
Square brackets hold non-standard residues; d marks the D form. Peptide text beside a SMILES is read from it. * marks the point of attachment. X3 = O=C(CCCCCNCc1nc2c(sc3cc(Br)cnc32)c(=O)[nH]1)*

Key:
Assay in all cases: Kinase profiling (radiometric filter-binding)
Format in all cases: biochemical
HIPK1 = HIPK1 (Homo sapiens, UniProt Q86Z02); conditions: HIPK1, 1 µM inhibitor; read-out: Residual activity, %
Procedure: (§1) Kinase selectivity profiling was performed using the commercial service provided by the MRC PPU International Centre for Kinase Profiling (Dundee, UK) using a radiometric filter-binding assay. Kinases used for analysis were of human origin. The ATP concentration applied for inhibition measurements was at or below the ATP KM value of the particular PK. ARC-3125 and ARC-3126 were screened against 139 PKs, whereas compounds 1, 2, and 8 were screened against 140 PKs. The final total concentration of inhibitors in the selectivity panel was 1 µM. Residual activities were expressed as the percentage of retained activity compared to the control without inhibitor.

RSK2 = RSK2 (Homo sapiens, UniProt P51812); conditions: RSK2, 1 µM inhibitor; read-out: Residual activity, %
Procedure: as §1

MSK1 = MSK1 (Homo sapiens, UniProt O75582); conditions: MSK1, 1 µM inhibitor; read-out: Residual activity, %
Chain of MSK1 (O75582 whole entry): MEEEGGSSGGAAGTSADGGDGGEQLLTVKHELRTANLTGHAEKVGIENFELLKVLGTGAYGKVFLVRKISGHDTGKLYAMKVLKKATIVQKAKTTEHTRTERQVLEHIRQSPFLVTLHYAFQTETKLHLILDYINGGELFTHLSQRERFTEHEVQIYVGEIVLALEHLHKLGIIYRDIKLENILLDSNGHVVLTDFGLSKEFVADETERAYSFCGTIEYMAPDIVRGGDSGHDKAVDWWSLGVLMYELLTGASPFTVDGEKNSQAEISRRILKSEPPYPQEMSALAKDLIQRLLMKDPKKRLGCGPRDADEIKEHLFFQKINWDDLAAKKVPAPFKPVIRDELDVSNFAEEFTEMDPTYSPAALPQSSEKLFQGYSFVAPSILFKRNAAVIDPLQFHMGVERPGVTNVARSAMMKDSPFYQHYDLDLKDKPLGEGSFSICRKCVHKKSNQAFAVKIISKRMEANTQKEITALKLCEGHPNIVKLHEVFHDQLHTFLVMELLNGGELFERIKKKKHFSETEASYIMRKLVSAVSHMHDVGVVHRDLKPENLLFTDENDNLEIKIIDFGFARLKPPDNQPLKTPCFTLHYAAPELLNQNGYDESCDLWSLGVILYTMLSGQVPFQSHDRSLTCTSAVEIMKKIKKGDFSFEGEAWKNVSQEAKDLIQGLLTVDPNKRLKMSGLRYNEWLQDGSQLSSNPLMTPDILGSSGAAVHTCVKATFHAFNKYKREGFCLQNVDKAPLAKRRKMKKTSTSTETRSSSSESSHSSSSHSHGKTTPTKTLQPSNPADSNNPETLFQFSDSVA
Procedure: as §1

p38 MAPK = p38 MAPK (Homo sapiens, UniProt Q15759); conditions: second of four lines (Greek letter lost), 1 µM inhibitor, read-out: Residual activity, %
Chain of p38 MAPK (Q15759 whole entry): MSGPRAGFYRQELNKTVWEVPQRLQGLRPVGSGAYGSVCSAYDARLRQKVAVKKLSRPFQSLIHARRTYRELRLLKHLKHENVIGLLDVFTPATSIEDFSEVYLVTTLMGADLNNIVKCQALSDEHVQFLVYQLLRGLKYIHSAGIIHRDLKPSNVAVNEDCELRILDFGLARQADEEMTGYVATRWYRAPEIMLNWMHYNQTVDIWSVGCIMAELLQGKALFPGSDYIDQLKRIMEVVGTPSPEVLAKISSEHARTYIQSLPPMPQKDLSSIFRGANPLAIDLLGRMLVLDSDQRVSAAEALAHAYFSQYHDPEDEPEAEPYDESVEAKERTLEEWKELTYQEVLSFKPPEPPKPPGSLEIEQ
Procedure: as §1

MAPKAP-K2 = MAPKAP-K2 (Homo sapiens, UniProt P49137); conditions: MAPKAP-K2, 1 µM inhibitor; read-out: Residual activity, %
Procedure: as §1

MAP4K5 = MAP4K5 (Homo sapiens, UniProt Q9Y4K4); conditions: MAP4K5, 1 µM inhibitor; read-out: Residual activity, %
Chain of MAP4K5 (Q9Y4K4 whole entry): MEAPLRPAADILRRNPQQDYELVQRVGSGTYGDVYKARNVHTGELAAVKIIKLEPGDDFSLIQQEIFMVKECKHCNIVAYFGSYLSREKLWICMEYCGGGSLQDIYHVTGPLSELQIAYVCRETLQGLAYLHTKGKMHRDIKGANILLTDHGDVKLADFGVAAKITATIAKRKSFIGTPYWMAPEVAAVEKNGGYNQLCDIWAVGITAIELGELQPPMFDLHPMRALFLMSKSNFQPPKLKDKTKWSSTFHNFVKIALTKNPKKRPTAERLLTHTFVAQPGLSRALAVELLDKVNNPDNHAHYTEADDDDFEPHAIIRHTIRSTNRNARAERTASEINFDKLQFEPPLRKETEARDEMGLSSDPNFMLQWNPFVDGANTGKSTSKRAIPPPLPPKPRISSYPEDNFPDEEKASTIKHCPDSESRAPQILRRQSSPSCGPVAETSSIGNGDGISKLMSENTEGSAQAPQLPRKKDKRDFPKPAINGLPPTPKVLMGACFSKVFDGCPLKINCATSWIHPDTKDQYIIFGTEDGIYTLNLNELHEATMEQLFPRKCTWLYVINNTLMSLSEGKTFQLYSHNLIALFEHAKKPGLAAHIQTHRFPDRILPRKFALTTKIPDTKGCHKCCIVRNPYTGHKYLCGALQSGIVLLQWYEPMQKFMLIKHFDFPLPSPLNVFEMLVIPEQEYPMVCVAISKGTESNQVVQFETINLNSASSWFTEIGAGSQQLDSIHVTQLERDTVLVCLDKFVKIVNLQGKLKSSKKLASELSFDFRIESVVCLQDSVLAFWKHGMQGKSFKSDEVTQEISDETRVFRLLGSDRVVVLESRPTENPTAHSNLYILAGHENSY
Procedure: as §1

MPSK1 = MPSK1 (Homo sapiens, UniProt O75716); conditions: MPSK1, 1 µM inhibitor; read-out: Residual activity, %
Chain of MPSK1 (O75716 whole entry): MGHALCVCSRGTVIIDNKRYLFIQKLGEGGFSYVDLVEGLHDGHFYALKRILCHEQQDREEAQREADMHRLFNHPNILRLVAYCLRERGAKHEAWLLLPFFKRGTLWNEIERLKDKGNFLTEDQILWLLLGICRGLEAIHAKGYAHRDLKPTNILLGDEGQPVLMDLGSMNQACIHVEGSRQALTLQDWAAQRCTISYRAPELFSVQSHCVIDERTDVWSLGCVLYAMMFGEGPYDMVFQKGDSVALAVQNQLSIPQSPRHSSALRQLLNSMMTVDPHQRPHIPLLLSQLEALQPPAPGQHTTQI
Procedure: as §1

BTK = BTK (Homo sapiens, UniProt Q06187); conditions: 1 µM inhibitor, read-out: Residual activity, %
Chain of BTK (Q06187 whole entry): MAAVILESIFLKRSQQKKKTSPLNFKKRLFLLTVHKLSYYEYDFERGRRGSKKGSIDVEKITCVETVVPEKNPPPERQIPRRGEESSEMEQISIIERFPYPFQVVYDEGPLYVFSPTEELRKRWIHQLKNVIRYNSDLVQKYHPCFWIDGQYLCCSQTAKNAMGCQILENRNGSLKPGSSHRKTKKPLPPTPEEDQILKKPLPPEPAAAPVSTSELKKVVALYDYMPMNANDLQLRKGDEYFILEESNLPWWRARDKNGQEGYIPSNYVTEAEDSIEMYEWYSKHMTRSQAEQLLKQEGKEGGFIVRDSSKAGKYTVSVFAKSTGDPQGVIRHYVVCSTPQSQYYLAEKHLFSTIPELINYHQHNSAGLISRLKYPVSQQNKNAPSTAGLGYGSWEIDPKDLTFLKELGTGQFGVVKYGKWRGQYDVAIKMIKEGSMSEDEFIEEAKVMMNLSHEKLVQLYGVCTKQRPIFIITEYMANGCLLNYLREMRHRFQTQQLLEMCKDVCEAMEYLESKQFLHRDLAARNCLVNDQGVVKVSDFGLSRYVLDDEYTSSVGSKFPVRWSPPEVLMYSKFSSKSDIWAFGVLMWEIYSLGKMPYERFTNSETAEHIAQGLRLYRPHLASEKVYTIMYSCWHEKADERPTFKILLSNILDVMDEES
Procedure: as §1

ABL = ABL (Homo sapiens, UniProt P00519); conditions: 1 µM inhibitor, read-out: Residual activity, %
Chain of ABL (P00519 whole entry): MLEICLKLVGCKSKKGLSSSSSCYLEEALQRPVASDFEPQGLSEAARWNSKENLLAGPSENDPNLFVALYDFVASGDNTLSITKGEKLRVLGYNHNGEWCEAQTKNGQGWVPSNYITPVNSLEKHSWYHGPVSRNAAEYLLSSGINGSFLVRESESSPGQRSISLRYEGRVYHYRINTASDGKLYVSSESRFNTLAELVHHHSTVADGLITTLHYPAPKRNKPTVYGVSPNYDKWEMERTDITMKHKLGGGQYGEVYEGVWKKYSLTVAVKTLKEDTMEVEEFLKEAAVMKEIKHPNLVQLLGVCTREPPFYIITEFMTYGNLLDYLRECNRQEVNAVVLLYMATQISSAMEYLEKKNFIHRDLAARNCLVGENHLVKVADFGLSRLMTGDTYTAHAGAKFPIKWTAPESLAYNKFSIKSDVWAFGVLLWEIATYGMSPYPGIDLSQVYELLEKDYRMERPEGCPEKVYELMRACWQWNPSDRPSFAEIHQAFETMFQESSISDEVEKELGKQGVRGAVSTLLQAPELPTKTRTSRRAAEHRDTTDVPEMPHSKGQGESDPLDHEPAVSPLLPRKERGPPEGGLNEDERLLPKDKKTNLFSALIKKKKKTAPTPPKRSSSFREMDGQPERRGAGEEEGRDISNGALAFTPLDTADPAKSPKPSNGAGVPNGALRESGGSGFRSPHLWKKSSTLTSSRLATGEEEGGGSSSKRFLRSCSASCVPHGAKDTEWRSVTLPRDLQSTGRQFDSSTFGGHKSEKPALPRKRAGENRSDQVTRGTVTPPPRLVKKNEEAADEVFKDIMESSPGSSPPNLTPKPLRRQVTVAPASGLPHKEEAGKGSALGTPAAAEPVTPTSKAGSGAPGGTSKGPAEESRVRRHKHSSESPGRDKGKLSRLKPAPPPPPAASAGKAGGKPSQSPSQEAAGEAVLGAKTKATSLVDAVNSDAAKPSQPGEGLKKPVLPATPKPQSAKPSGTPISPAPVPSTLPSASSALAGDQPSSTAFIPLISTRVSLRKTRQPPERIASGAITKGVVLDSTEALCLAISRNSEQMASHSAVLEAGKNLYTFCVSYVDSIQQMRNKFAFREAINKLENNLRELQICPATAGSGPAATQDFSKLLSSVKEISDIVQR
Procedure: as §1

BRSK1 = biological target: T1, BRSK1 (Homo sapiens, UniProt Q8TDC3); conditions: BRSK1, 1 µM inhibitor; read-out: Residual activity, %
T1 sequence (Q8TDC3 1-778): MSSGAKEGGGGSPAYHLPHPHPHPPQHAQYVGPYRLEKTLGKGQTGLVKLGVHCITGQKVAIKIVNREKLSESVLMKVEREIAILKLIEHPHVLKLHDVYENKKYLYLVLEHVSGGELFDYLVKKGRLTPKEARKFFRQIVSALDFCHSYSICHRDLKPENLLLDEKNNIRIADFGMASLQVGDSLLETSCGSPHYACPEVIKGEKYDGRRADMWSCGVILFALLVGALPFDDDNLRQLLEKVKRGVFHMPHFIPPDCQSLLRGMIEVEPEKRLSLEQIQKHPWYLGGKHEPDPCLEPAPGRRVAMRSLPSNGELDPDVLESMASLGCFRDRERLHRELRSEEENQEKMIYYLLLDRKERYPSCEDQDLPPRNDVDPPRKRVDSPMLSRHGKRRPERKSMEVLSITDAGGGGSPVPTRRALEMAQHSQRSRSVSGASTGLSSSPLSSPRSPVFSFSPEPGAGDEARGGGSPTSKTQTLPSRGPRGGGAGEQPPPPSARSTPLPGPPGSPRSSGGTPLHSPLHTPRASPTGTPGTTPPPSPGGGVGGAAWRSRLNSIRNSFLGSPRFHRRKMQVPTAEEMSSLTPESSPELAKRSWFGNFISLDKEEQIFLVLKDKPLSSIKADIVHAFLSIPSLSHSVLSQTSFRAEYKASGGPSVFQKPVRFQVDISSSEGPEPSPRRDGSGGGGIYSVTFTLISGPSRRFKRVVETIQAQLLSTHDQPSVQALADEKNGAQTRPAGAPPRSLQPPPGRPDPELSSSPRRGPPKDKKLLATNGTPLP
Procedure: as §1

CSK = CSK (Homo sapiens, UniProt P41240); conditions: 1 µM inhibitor, read-out: Residual activity, %
Procedure: as §1

EPH-B1 = biological target: T2, EPH-B1 (Homo sapiens, UniProt P54762); conditions: EPH-B1, 1 µM inhibitor; read-out: Residual activity, %
T2 sequence (P54762 18-984): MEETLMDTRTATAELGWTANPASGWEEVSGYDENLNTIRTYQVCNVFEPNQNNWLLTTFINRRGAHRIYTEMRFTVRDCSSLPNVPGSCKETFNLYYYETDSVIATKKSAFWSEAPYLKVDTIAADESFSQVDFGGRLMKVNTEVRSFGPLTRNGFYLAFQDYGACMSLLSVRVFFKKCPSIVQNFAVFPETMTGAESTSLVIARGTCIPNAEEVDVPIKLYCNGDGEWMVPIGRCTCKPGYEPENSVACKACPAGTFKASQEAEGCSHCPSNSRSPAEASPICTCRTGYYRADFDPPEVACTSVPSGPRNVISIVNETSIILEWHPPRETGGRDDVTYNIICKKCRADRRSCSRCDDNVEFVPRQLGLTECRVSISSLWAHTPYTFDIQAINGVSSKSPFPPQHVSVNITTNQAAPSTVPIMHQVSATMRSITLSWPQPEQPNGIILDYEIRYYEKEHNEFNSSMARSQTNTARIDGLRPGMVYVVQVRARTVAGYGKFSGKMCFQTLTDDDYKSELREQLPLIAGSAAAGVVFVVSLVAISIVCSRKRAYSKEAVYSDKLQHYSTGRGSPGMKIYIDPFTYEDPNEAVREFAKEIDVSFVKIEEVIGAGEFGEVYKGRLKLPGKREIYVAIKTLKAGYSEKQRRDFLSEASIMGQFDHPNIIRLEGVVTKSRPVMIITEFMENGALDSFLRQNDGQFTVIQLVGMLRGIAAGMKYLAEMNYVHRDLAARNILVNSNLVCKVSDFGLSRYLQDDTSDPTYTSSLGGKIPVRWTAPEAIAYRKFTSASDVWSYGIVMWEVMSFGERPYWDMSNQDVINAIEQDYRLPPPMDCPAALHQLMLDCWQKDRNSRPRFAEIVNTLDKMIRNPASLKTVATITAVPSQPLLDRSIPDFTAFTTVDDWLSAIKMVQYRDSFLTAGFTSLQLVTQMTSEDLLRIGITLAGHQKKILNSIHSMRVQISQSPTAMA
Procedure: as §1

PAK5 = PAK5 (Homo sapiens, UniProt Q9P286); conditions: PAK5, 1 µM inhibitor; read-out: Residual activity, %
Chain of PAK5 (Q9P286 whole entry): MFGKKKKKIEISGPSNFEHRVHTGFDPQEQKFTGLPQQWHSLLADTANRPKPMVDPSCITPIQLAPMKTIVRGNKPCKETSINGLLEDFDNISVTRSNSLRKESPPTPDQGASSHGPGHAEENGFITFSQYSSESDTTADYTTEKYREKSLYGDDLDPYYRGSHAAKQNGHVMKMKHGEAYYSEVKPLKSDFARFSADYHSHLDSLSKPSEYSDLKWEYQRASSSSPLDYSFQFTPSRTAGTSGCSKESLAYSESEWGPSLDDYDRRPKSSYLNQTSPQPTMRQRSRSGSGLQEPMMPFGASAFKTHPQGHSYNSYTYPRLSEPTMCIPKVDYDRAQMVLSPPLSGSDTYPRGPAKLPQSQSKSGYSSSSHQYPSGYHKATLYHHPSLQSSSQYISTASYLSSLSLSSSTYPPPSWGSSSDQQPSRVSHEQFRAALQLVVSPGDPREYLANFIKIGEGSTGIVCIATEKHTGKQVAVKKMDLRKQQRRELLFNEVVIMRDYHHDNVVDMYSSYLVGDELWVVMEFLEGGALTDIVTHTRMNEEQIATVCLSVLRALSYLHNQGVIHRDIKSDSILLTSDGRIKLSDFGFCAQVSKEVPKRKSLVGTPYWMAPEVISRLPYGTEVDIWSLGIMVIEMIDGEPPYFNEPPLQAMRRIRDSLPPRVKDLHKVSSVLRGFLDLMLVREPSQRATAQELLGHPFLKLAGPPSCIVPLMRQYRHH
Procedure: as §1

| Compound | remaining activity at 1 µM (HIPK1) | remaining activity at 1 µM (RSK2) | remaining activity at 1 µM (MSK1) | remaining activity at 1 µM (p38 MAPK) | remaining activity at 1 µM (MAPKAP-K2) | remaining activity at 1 µM (MAP4K5) | remaining activity at 1 µM (MPSK1) | remaining activity at 1 µM (BTK) | remaining activity at 1 µM (ABL) | remaining activity at 1 µM (BRSK1) | remaining activity at 1 µM (CSK) | remaining activity at 1 µM (EPH-B1) | remaining activity at 1 µM (PAK5) |
| --- | --- | --- | --- | --- | --- | --- | --- | --- | --- | --- | --- | --- | --- |
| N=C(N)NCCC[C@@H](NC(=O)CNC(=O)[C@@H](CCCNC(=N)N)NC(=O)[C@@H](CCCNC(=N)N)NC(=O)CCCCCCCNCc1nc2c(sc3cc(Br)cnc32)c(=O)[nH]1)C(=O)N[C@H](CCCCN)C(N)=O [Compound 1, BPTP-Aoc-(D-Arg)2-Gly-D-Arg-D-Lys-NH2] | 111 ± 9% | 109 ± 11% | 106 ± 13% | 108 ± 14% | 107 ± 10% | 107 ± 12% | 113 ± 21% | 106 ± 10% | 94 ± 8% | 107 ± 5% | 141 ± 10% | 103 ± 9% | 112 ± 3% |
| N=C(N)NCCC[C@@H](NC(=O)CCCCCNCc1nc2c(sc3cc(Br)cnc32)c(=O)[nH]1)C(=O)N[C@H](CCCNC(=N)N)C(=O)N[C@H](CCCNC(=N)N)C(=O)N[C@H](CCCNC(=N)N)C(=O)N[C@H](CCCNC(=N)N)C(=O)N[C@H](CCCNC(=N)N)C(=O)N[C@H](CCCCN)C(N)=O [ARC-3126, BPTP-Ahx-(D-Arg)6-D-Lys-NH2] (X3-[dR][dR][dR][dR][dR][dR][dK]-NH2) | 95 ± 15% | 86 ± 15% | 29 ± 1% | 94 ± 4% |  | 50 ± 12% | 79 ± 11% | 43 ± 2% | 116 ± 5% | 50 ± 10% | 91 ± 18% | 96 ± 6% | 89 ± 2% |
| N=C(N)NCCC[C@@H](NC(=O)CCCCCNC(=O)Cn1cnc2c(I)c(I)c(I)c(I)c21)C(=O)N[C@H](CCCNC(=N)N)C(=O)N[C@H](CCCNC(=N)N)C(=O)N[C@H](CCCNC(=N)N)C(=O)N[C@H](CCCNC(=N)N)C(=O)N[C@H](CCCNC(=N)N)C(=O)N[C@H](CCCCN)C(N)=O [ARC-3125, TIBI-CH2-C(=O)-Ahx-(D-Arg)6-D-Lys-NH2] | 61 ± 1% | 17 ± 1% | 6 ± 8% | 80 ± 6% | 51 ± 5% | 102 ± 3% | 75 ± 3% | 31 ± 2% | 106% | 84 ± 2% | 85 ± 2% | 106 ± 12% | 25 ± 6% |
| N=C(N)NCCC[C@@H](NC(=O)CNC(=O)[C@@H](CCCNC(=N)N)NC(=O)[C@@H](CCCNC(=N)N)NC(=O)CCCCCCCNCc1nc2c(sc3ccc(Br)cc32)c(=O)[nH]1)C(=O)N[C@H](CCCCN)C(N)=O [Compound 2, BBTP-Aoc-(D-Arg)2-Gly-D-Arg-D-Lys-NH2] | 60 ± 12% | 92 ± 10% | 53 ± 4% | 113 ± 4% | 107 ± 2% | 112 ± 10% | 113 ± 15% | 99 ± 20% | 89 ± 5% | 101% | 112 ± 20% | 99 ± 15% | 100 ± 2% |
| N=C(N)NCCC[C@@H](NC(=O)CNC(=O)[C@@H](CCCNC(=N)N)NC(=O)[C@@H](CCCNC(=N)N)NC(=O)Cn1cc(CNCc2nc3c(sc4ccc(Br)cc43)c(=O)[nH]2)nn1)C(=O)N[C@H](CCCCN)C(N)=O [Compound 3, BBTP-Amt-(D-Arg)2-Gly-D-Arg-D-Lys-NH2] | 60 ± 3% | 106 ± 11% | 90 ± 2% | 100 ± 6% | 114 ± 4% | 98 ± 3% | 110 ± 2% | 82 ± 1% | 91 ± 12% | 90 ± 11% | 116 ± 5% | 106 ± 11% | 92 ± 5% |
